{"source": "the RNAGym collection of RNA variant scans (doi:10.1073/pnas.2313332121)", "parents": {"B1": {"name": "TPR t1 (parent)", "chain": "GACCAAUCUGCCCUCAGAGCUCGAGAACAUCUUCGGAUGCAGAGGAGGCAGGCUUCGGUGGCGCGAUAGCGCCAACGUCCUCAACCUCCAAUGCAUCCCACCACAUGAUGAUGCCUGAAGAGCCUUGGUUUUUUG"}}}
{"variants_of": "B1", "test": "polymerase ribozyme fitness, log enrichment relative to wild type (log ratio); higher = more active; in vitro selection for triplet polymerase activity", "in_short": "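Mutant libraries of both subunits of a heterodimeric triplet polymerase ribozyme were PCR-built, transcribed, and selected once in triplicate, with frozen incubation at −7 °C and capture of gel-excised extended constructs on streptavidin beads before RT-PCR. Illumina sequencing of input and output libraries was filtered to genotypes with ≥10 input reads and ≥1 read per output. Fitness is the logarithm of genotype enrichment over wild-type enrichment, using inverse-variance-weighted replicate averages. The logarithm is base 2.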"}
{"variant": "C13U C82U A83G A118U", "polymerase ribozyme fitness (log ratio)": -1.83}
{"variant": "C13G G71C A84G C104A U109G G117U C124A U130G", "polymerase ribozyme fitness (log ratio)": -6.92}
{"variant": "C13G C15A A18C C79U G120U", "polymerase ribozyme fitness (log ratio)": -2.11}
{"variant": "C13U G35A G48A U59C C86U G120U", "polymerase ribozyme fitness (log ratio)": -5.19}
{"variant": "C13U A26G G58A", "polymerase ribozyme fitness (log ratio)": -3.1}
{"variant": "C13A A90G A95G U133G", "polymerase ribozyme fitness (log ratio)": -1.7}
{"variant": "C13U A50U A66G C88U A90U U109A U116C", "polymerase ribozyme fitness (log ratio)": -5.37}
{"variant": "C13G C73U U78C A121C", "polymerase ribozyme fitness (log ratio)": -0.0893}
{"variant": "C13U C72G C85G C123U", "polymerase ribozyme fitness (log ratio)": -0.494}
{"variant": "C13U A84U G113U U116A A119G G135U", "polymerase ribozyme fitness (log ratio)": -6.59}
{"variant": "C13A C94A C124A", "polymerase ribozyme fitness (log ratio)": 0.414}
{"variant": "C13A G42A G77U U131C", "polymerase ribozyme fitness (log ratio)": -3.87}
{"variant": "C13G C53G C115A", "polymerase ribozyme fitness (log ratio)": -1.47}
{"variant": "C13U C56G U59G A95C", "polymerase ribozyme fitness (log ratio)": -2.3}
{"variant": "C13U C34A C70A U106A C114A", "polymerase ribozyme fitness (log ratio)": -6.64}
{"variant": "C12U U21A C62G C104U", "polymerase ribozyme fitness (log ratio)": -2.05}
{"variant": "C13G G47U C49U C73A", "polymerase ribozyme fitness (log ratio)": -3.52}
{"variant": "C13U C64U", "polymerase ribozyme fitness (log ratio)": 0.138}
{"variant": "C13U G35U", "polymerase ribozyme fitness (log ratio)": -3.47}
{"variant": "C13G G71U U112C", "polymerase ribozyme fitness (log ratio)": -0.426}
{"variant": "C13A A46U", "polymerase ribozyme fitness (log ratio)": -3.23}
{"variant": "C12U U130G", "polymerase ribozyme fitness (log ratio)": 0.00659}
{"variant": "C12U G63U U78A C79U", "polymerase ribozyme fitness (log ratio)": 0.0353}
{"variant": "C13A G57C C85G C123U", "polymerase ribozyme fitness (log ratio)": -1.45}
{"variant": "C13G G51A", "polymerase ribozyme fitness (log ratio)": -4.69}
{"variant": "C13U A18C U55G G93U", "polymerase ribozyme fitness (log ratio)": -2.65}
{"variant": "C13A G19A G52C C76G A118U C124A U133A", "polymerase ribozyme fitness (log ratio)": -4.56}
{"variant": "C13G C101A", "polymerase ribozyme fitness (log ratio)": -2.61}
{"variant": "C12U G51A C101U", "polymerase ribozyme fitness (log ratio)": -2.14}
{"variant": "C13A C56U", "polymerase ribozyme fitness (log ratio)": -1.43}
{"variant": "C12U G51A G71C C79U C101A", "polymerase ribozyme fitness (log ratio)": -5.68}
{"variant": "C12U U54A C56A A91C C115U", "polymerase ribozyme fitness (log ratio)": -1.35}
{"variant": "C13G A43U C101U", "polymerase ribozyme fitness (log ratio)": -3.57}
{"variant": "C13A U32C A100C", "polymerase ribozyme fitness (log ratio)": -2.75}
{"variant": "C13U A37U C64G G93C A105U G110U U129G", "polymerase ribozyme fitness (log ratio)": -7.07}
{"variant": "C12U G65U", "polymerase ribozyme fitness (log ratio)": -4.93}
{"variant": "C13U G63U", "polymerase ribozyme fitness (log ratio)": -0.742}
{"variant": "C13U G63C", "polymerase ribozyme fitness (log ratio)": -0.36}
{"variant": "C13G C104U", "polymerase ribozyme fitness (log ratio)": -0.77}
{"variant": "C13G U59A A91U C115U", "polymerase ribozyme fitness (log ratio)": -4.42}
{"variant": "C12U U78C G110U", "polymerase ribozyme fitness (log ratio)": -1.38}
{"variant": "C13G U78G", "polymerase ribozyme fitness (log ratio)": -2.05}
{"variant": "C13A A100U", "polymerase ribozyme fitness (log ratio)": -2.85}
{"variant": "C13U C20A U38G", "polymerase ribozyme fitness (log ratio)": -4.15}
{"variant": "C13G C64U", "polymerase ribozyme fitness (log ratio)": -0.666}
{"variant": "C13G C62U A100C U112C", "polymerase ribozyme fitness (log ratio)": -1.47}
{"variant": "C13A A37C A118U", "polymerase ribozyme fitness (log ratio)": -1.38}
{"variant": "C13G A50G G71A U106A C124A G127U", "polymerase ribozyme fitness (log ratio)": -0.731}
{"variant": "C13U G42U C70U A121C", "polymerase ribozyme fitness (log ratio)": 0.0681}
{"variant": "C13U G63U A90U G117C", "polymerase ribozyme fitness (log ratio)": -5.21}
{"variant": "C13U C49U", "polymerase ribozyme fitness (log ratio)": -0.549}
{"variant": "C13U U55G A91G", "polymerase ribozyme fitness (log ratio)": -0.322}
{"variant": "C13U A66U C70U C72G C88U G120A U126C", "polymerase ribozyme fitness (log ratio)": -4.41}
{"variant": "C13G A26U G47A C82U", "polymerase ribozyme fitness (log ratio)": -5.11}
{"variant": "C13U G47C C72G G110A", "polymerase ribozyme fitness (log ratio)": -3.24}
{"variant": "C13U C82G", "polymerase ribozyme fitness (log ratio)": 0.0764}
{"variant": "C13U U14A A27U G47C", "polymerase ribozyme fitness (log ratio)": -6.21}
{"variant": "C13U G39U G61C", "polymerase ribozyme fitness (log ratio)": -1.9}
{"variant": "C13U C73G A83G", "polymerase ribozyme fitness (log ratio)": -1.22}
{"variant": "C13G G42U C53A U87C C88U A121C C123A", "polymerase ribozyme fitness (log ratio)": -0.648}
{"variant": "C12U U87C", "polymerase ribozyme fitness (log ratio)": 1.04}
{"variant": "C13U G47C C73A C99U", "polymerase ribozyme fitness (log ratio)": -4.72}
{"variant": "C13G G48U C53A", "polymerase ribozyme fitness (log ratio)": -2.34}
{"variant": "C13A G39C G120A", "polymerase ribozyme fitness (log ratio)": -0.0336}
{"variant": "C13U G19U G52U", "polymerase ribozyme fitness (log ratio)": -2.98}
{"variant": "C13G A16C C85G A121C", "polymerase ribozyme fitness (log ratio)": -3.75}
{"variant": "C13U U96A", "polymerase ribozyme fitness (log ratio)": -1.11}
{"variant": "C13G C85U", "polymerase ribozyme fitness (log ratio)": -2.91}
{"variant": "C13A A16U C101G", "polymerase ribozyme fitness (log ratio)": -4.02}
{"variant": "C12U U33G C62G A105U U112G U125A", "polymerase ribozyme fitness (log ratio)": -6.16}
{"variant": "C13G G52U A68G A111C C124U U133C", "polymerase ribozyme fitness (log ratio)": -4.14}
{"variant": "C13U C62G U130C G135U", "polymerase ribozyme fitness (log ratio)": -1.67}
{"variant": "C13U U112C", "polymerase ribozyme fitness (log ratio)": 1.07}
{"variant": "C13G A26C C40U C79U C85U G120C", "polymerase ribozyme fitness (log ratio)": -6.15}
{"variant": "C13G C56A A74G C101G U112C U130A", "polymerase ribozyme fitness (log ratio)": -3.67}
{"variant": "C13A C62G", "polymerase ribozyme fitness (log ratio)": -2.67}
{"variant": "C13A G60C A84G", "polymerase ribozyme fitness (log ratio)": -2.96}
{"variant": "C13U G60C C82U U96G", "polymerase ribozyme fitness (log ratio)": -1.02}
{"variant": "C13G C28G G42C", "polymerase ribozyme fitness (log ratio)": -6.24}
{"variant": "C13U C34A G71C A121U", "polymerase ribozyme fitness (log ratio)": -2.27}
{"variant": "C13A A75U U125A", "polymerase ribozyme fitness (log ratio)": -2.12}
{"variant": "C13G C104U C123A U125G", "polymerase ribozyme fitness (log ratio)": 0.46}
{"variant": "C13A G71A G120A A121U", "polymerase ribozyme fitness (log ratio)": -0.704}
